The text below walks through data of patent EP2871189A1 (INSTITUT PASTEUR, dated 2015).

Assay [1] deals with recombinant ectodomain of glycoprotein E2 of GB virus (GBV-B) fused to the double Strep-Tag (GB virus (GBV-B)). As to the kind of experiment: Western blot. A general note: Immunoblotting shows a protein as a band on a membrane.
For assay [2], the target named is T1, VHH-E9 containing the strep-tag sequence of SEQ ID NO: 13 at the C terminus.
T1 construct: also called Strep-tagged anti-GFAP VHH E9; anti-GFAP VHH E9
Briefly: ELISA assay after Friguet et al 1985 (method as in the sentence before). On the technique in general: An ELISA detects its analyte on a solid surface through an enzyme-linked reagent.

B1: monoclonal antibody C23.21 (antibody, V domains shown)
VH: EVQLEQSGPELVKPGASVKMSCKASGYTFTNYYMKWVKQSHGKSLEWIGDLNPNNGDTFYNQKFKGKATLTVDKSSNTAYMQLNSLTSEDSAVYYCARTGRYEENAMDYWGQGTSVTVSS
VL: ELVMTQSPASLAVSLGQRATISCRASESVDSYGKSFMHWYQLKPGQPPKLLIYRASNLESGVPARFSGSGSRTDFTLTIDPVEADDAATYYCQQNNEDPWTFGGGTKLEIK
notes: also called C23-21 mAb; anti-strep tag C23-21 mAb
For orientation: Kd means the equilibrium constant for the complex coming apart. Lower therefore signals a tighter complex. Take B1: the binding result in assay [1] was “binds”. Besides, the affinity in assay [2], expressed as Kd, was 0.91 nM.
